# Measurements: patent publication US20070275898
# Target: β subunit of DNA polymerase III of Escherichia coli (UniProt P0A988)
# Sequence (P0A988 whole entry): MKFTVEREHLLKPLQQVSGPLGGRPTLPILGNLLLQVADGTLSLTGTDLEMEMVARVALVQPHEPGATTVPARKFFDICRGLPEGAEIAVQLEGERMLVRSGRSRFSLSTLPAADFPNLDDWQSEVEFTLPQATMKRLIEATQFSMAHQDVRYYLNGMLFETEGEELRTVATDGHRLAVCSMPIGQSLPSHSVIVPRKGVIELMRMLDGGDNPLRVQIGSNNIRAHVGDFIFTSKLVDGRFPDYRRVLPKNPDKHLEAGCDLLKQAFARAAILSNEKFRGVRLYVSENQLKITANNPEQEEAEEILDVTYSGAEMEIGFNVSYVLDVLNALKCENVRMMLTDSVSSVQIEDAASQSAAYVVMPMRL
substance,measurement,value
Pol IVD5 mutant of Pol IV lacking the 5 C-terminal amino-acids,growth rate (OD 600 nm) of E. coli on IPTG-induced expression,a clear growth inhibition was observed for the culture expressing the wild type Pol IV protein compared to the one expressing the mutant protein
